Source: patent US20140087995A1 (published 2014)
Like-named read-outs stand apart in the source and are kept apart here. Numbered stars: 1 amine (or outer) side, 2 acyl side, 3 side chain; on linkers, the order of the positions; unused ones are H or OH. Bridge positions count the residues as written; N and C are the ends. Side chains are listed from the residue outwards. Ends that are not written are not given here. * marks the point of attachment. C20 diacid = O=C(O)CCCCCCCCCCCCCCCCCCC(=O)*; γGlu = O=C(O)[C@H](CCC(=O)[*:2])N[*:1]; AEEA = NCCOCCOCC(=O)O

T1: human calcitonin receptor (human, UniProt P30988 25-474)
T1 sequence (looked up): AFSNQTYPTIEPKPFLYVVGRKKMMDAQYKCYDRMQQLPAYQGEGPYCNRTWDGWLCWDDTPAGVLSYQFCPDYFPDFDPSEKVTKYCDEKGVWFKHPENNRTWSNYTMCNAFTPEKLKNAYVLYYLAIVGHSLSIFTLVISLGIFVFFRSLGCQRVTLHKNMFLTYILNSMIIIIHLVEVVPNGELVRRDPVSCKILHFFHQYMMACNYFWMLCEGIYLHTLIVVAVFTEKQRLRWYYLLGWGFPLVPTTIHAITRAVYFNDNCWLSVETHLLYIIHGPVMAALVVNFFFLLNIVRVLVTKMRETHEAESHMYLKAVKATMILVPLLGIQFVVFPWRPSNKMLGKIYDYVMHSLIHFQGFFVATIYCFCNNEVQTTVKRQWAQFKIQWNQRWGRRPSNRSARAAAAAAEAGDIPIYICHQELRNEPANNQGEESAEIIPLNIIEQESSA

T2: human calcitonin receptor (human, UniProt P30988 25-474)
T2 sequence (looked up): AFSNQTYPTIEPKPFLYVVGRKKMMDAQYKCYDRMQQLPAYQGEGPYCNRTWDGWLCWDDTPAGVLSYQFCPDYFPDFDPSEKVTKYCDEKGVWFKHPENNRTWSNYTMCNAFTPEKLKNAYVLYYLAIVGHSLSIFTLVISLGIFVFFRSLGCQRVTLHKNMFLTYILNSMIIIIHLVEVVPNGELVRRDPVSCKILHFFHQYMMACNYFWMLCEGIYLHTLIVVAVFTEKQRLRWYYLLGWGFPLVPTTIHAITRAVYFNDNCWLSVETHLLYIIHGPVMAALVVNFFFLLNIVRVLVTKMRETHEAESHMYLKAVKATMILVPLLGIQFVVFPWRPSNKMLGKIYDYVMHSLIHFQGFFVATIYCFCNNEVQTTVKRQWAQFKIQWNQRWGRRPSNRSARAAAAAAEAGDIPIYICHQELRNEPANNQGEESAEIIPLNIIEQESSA

T3: human amylin 3(a) receptor (human calcitonin receptor co-expressed with RAMP-3) (human, UniProt P30988 25-474; O60896 24-148, limits assumed)
T3 sequence (looked up) 1: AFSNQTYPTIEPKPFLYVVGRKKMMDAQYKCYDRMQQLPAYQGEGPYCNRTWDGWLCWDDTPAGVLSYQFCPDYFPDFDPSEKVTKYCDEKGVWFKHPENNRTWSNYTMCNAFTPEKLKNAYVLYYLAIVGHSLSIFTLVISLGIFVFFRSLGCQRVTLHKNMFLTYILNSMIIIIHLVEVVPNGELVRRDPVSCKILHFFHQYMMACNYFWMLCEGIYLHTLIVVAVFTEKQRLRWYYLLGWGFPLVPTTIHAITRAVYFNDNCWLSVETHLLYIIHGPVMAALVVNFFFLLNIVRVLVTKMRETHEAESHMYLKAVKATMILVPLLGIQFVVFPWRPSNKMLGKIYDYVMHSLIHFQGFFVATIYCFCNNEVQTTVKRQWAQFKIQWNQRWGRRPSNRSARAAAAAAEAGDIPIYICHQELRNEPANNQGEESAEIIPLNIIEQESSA
T3 sequence (looked up) 2: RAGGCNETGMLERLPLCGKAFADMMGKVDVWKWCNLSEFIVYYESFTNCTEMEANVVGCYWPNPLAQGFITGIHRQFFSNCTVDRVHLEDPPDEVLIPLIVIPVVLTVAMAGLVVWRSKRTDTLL


Experiments:
Assay in all cases: cell-based or functional assay
[1] = target: T1, human calcitonin receptor
[2] = target: T2, human calcitonin receptor; remark: listed apart in the source
[3] = target: T3, human amylin 3(a) receptor (human …)

| Binder | hCTR funct. EC50 [1] | Ratio hCT/hAmylin funct. [2] | hCTR funct. EC50 [2] | hAmylin-R funct. EC50 [3] |
| --- | --- | --- | --- | --- |
| K([AEEA-C20 diacid])CNTATCATQRLAHFLRHSSPNFGAIPSSTNVGSNTY-NH2 (disulfide 2-7; N-terminus assumed; SMILES CC[C@H](C)[C@H](NC(=O)[C@H](C)NC(=O)CNC(=O)[C@H](Cc1ccccc1)NC(=O)[C@H](CC(N)=O)NC(=O)[C@@H]1CCCN1C(=O)[C@H](CO)NC(=O)[C@H](CO)NC(=O)[C@H](Cc1c[nH]cn1)NC(=O)[C@H](CCCNC(=N)N)NC(=O)[C@H](CC(C)C)NC(=O)[C@H](Cc1ccccc1)NC(=O)[C@H](Cc1c[nH]cn1)NC(=O)[C@H](C)NC(=O)[C@H](CC(C)C)NC(=O)[C@H](CCCNC(=N)N)NC(=O)[C@H](CCC(N)=O)NC(=O)[C@@H](NC(=O)[C@H](C)NC(=O)[C@@H]1CSSC[C@H](NC(=O)[C@@H](N)CCCCNC(=O)COCCOCCNC(=O)CCCCCCCCCCCCCCCCCCC(=O)O)C(=O)N[C@@H](CC(N)=O)C(=O)N[C@@H]([C@@H](C)O)C(=O)N[C@@H](C)C(=O)N[C@@H]([C@@H](C)O)C(=O)N1)[C@@H](C)O)C(=O)N1CCC[C@H]1C(=O)N[C@@H](CO)C(=O)N[C@@H](CO)C(=O)N[C@H](C(=O)N[C@@H](CC(N)=O)C(=O)N[C@H](C(=O)NCC(=O)N[C@@H](CO)C(=O)N[C@@H](CC(N)=O)C(=O)N[C@H](C(=O)N[C@@H](Cc1ccc(O)cc1)C(N)=O)[C@@H](C)O)C(C)C)[C@@H](C)O, also called compound 90) [N^ε1-[2-[2-[2-(19-carboxynonadecanoylamino)ethoxy]ethoxy]acetyl]-[His14,Arg17,Pro21,Pro27]-h-amylin] | 0.236 nM |  |  |  |
| K([γGlu-γGlu-C20 diacid])CNTATCATQRLAHFLRHSSPNFGAIPSSTNVGSNTY-NH2 (disulfide 2-7; N-terminus assumed; SMILES CC[C@H](C)[C@H](NC(=O)[C@H](C)NC(=O)CNC(=O)[C@H](Cc1ccccc1)NC(=O)[C@H](CC(N)=O)NC(=O)[C@@H]1CCCN1C(=O)[C@H](CO)NC(=O)[C@H](CO)NC(=O)[C@H](Cc1c[nH]cn1)NC(=O)[C@H](CCCNC(=N)N)NC(=O)[C@H](CC(C)C)NC(=O)[C@H](Cc1ccccc1)NC(=O)[C@H](Cc1c[nH]cn1)NC(=O)[C@H](C)NC(=O)[C@H](CC(C)C)NC(=O)[C@H](CCCNC(=N)N)NC(=O)[C@H](CCC(N)=O)NC(=O)[C@@H](NC(=O)[C@H](C)NC(=O)[C@@H]1CSSC[C@H](NC(=O)[C@@H](N)CCCCNC(=O)CC[C@H](NC(=O)CC[C@H](NC(=O)CCCCCCCCCCCCCCCCCCC(=O)O)C(=O)O)C(=O)O)C(=O)N[C@@H](CC(N)=O)C(=O)N[C@@H]([C@@H](C)O)C(=O)N[C@@H](C)C(=O)N[C@@H]([C@@H](C)O)C(=O)N1)[C@@H](C)O)C(=O)N1CCC[C@H]1C(=O)N[C@@H](CO)C(=O)N[C@@H](CO)C(=O)N[C@H](C(=O)N[C@@H](CC(N)=O)C(=O)N[C@H](C(=O)NCC(=O)N[C@@H](CO)C(=O)N[C@@H](CC(N)=O)C(=O)N[C@H](C(=O)N[C@@H](Cc1ccc(O)cc1)C(N)=O)[C@@H](C)O)C(C)C)[C@@H](C)O, also called compound 92) | 2.38 nM |  |  |  |
| K([γGlu-γGlu-C20 diacid])CNTATCATQRLAEFLRHSSPNFGAIPSSTNVGHNTY-NH2 (disulfide 2-7; N-terminus assumed; SMILES CC[C@H](C)[C@H](NC(=O)[C@H](C)NC(=O)CNC(=O)[C@H](Cc1ccccc1)NC(=O)[C@H](CC(N)=O)NC(=O)[C@@H]1CCCN1C(=O)[C@H](CO)NC(=O)[C@H](CO)NC(=O)[C@H](Cc1c[nH]cn1)NC(=O)[C@H](CCCNC(=N)N)NC(=O)[C@H](CC(C)C)NC(=O)[C@H](Cc1ccccc1)NC(=O)[C@H](CCC(=O)O)NC(=O)[C@H](C)NC(=O)[C@H](CC(C)C)NC(=O)[C@H](CCCNC(=N)N)NC(=O)[C@H](CCC(N)=O)NC(=O)[C@@H](NC(=O)[C@H](C)NC(=O)[C@@H]1CSSC[C@H](NC(=O)[C@@H](N)CCCCNC(=O)CC[C@H](NC(=O)CC[C@H](NC(=O)CCCCCCCCCCCCCCCCCCC(=O)O)C(=O)O)C(=O)O)C(=O)N[C@@H](CC(N)=O)C(=O)N[C@@H]([C@@H](C)O)C(=O)N[C@@H](C)C(=O)N[C@@H]([C@@H](C)O)C(=O)N1)[C@@H](C)O)C(=O)N1CCC[C@H]1C(=O)N[C@@H](CO)C(=O)N[C@@H](CO)C(=O)N[C@H](C(=O)N[C@@H](CC(N)=O)C(=O)N[C@H](C(=O)NCC(=O)N[C@@H](Cc1c[nH]cn1)C(=O)N[C@@H](CC(N)=O)C(=O)N[C@H](C(=O)N[C@@H](Cc1ccc(O)cc1)C(N)=O)[C@@H](C)O)C(C)C)[C@@H](C)O, also called compound 87) |  | 3.8 | 1.09 nM | 0.285 nM |
| K([AEEA-C20 diacid])CNTATCATQRLANFLRHSSPNFGAIPSSTNVGHNTY-NH2 (disulfide 2-7; N-terminus assumed; SMILES CC[C@H](C)[C@H](NC(=O)[C@H](C)NC(=O)CNC(=O)[C@H](Cc1ccccc1)NC(=O)[C@H](CC(N)=O)NC(=O)[C@@H]1CCCN1C(=O)[C@H](CO)NC(=O)[C@H](CO)NC(=O)[C@H](Cc1c[nH]cn1)NC(=O)[C@H](CCCNC(=N)N)NC(=O)[C@H](CC(C)C)NC(=O)[C@H](Cc1ccccc1)NC(=O)[C@H](CC(N)=O)NC(=O)[C@H](C)NC(=O)[C@H](CC(C)C)NC(=O)[C@H](CCCNC(=N)N)NC(=O)[C@H](CCC(N)=O)NC(=O)[C@@H](NC(=O)[C@H](C)NC(=O)[C@@H]1CSSC[C@H](NC(=O)[C@@H](N)CCCCNC(=O)COCCOCCNC(=O)CCCCCCCCCCCCCCCCCCC(=O)O)C(=O)N[C@@H](CC(N)=O)C(=O)N[C@@H]([C@@H](C)O)C(=O)N[C@@H](C)C(=O)N[C@@H]([C@@H](C)O)C(=O)N1)[C@@H](C)O)C(=O)N1CCC[C@H]1C(=O)N[C@@H](CO)C(=O)N[C@@H](CO)C(=O)N[C@H](C(=O)N[C@@H](CC(N)=O)C(=O)N[C@H](C(=O)NCC(=O)N[C@@H](Cc1c[nH]cn1)C(=O)N[C@@H](CC(N)=O)C(=O)N[C@H](C(=O)N[C@@H](Cc1ccc(O)cc1)C(N)=O)[C@@H](C)O)C(C)C)[C@@H](C)O, also called compound 91) [N^ε1-[2-[2-[2-(19-carboxynonadecanoylamino)ethoxy]ethoxy]acetyl]-[Arg17,Pro21,Pro27,His34]-h-amylin] |  | 36.9 | 1.48 nM | 0.04 nM |
| {C20 diacid-γGlu}-GRCNTATCATQRLAHFLRHSSPNFGAIPSSTNVGSNTY-NH2 (disulfide 3-8; SMILES CC[C@H](C)[C@H](NC(=O)[C@H](C)NC(=O)CNC(=O)[C@H](Cc1ccccc1)NC(=O)[C@H](CC(N)=O)NC(=O)[C@@H]1CCCN1C(=O)[C@H](CO)NC(=O)[C@H](CO)NC(=O)[C@H](Cc1c[nH]cn1)NC(=O)[C@H](CCCNC(=N)N)NC(=O)[C@H](CC(C)C)NC(=O)[C@H](Cc1ccccc1)NC(=O)[C@H](Cc1c[nH]cn1)NC(=O)[C@H](C)NC(=O)[C@H](CC(C)C)NC(=O)[C@H](CCCNC(=N)N)NC(=O)[C@H](CCC(N)=O)NC(=O)[C@@H](NC(=O)[C@H](C)NC(=O)[C@@H]1CSSC[C@H](NC(=O)[C@H](CCCNC(=N)N)NC(=O)CNC(=O)CC[C@H](NC(=O)CCCCCCCCCCCCCCCCCCC(=O)O)C(=O)O)C(=O)N[C@@H](CC(N)=O)C(=O)N[C@@H]([C@@H](C)O)C(=O)N[C@@H](C)C(=O)N[C@@H]([C@@H](C)O)C(=O)N1)[C@@H](C)O)C(=O)N1CCC[C@H]1C(=O)N[C@@H](CO)C(=O)N[C@@H](CO)C(=O)N[C@H](C(=O)N[C@@H](CC(N)=O)C(=O)N[C@H](C(=O)NCC(=O)N[C@@H](CO)C(=O)N[C@@H](CC(N)=O)C(=O)N[C@H](C(=O)N[C@@H](Cc1ccc(O)cc1)C(N)=O)[C@@H](C)O)C(C)C)[C@@H](C)O, also called compound 99) | 0.818 nM |  |  |  |
| {C20 diacid-γGlu}-GRCNTATCATQRLAHFLRHSSPNFGAIPSSTNVGHNTY-NH2 (disulfide 3-8; SMILES CC[C@H](C)[C@H](NC(=O)[C@H](C)NC(=O)CNC(=O)[C@H](Cc1ccccc1)NC(=O)[C@H](CC(N)=O)NC(=O)[C@@H]1CCCN1C(=O)[C@H](CO)NC(=O)[C@H](CO)NC(=O)[C@H](Cc1c[nH]cn1)NC(=O)[C@H](CCCNC(=N)N)NC(=O)[C@H](CC(C)C)NC(=O)[C@H](Cc1ccccc1)NC(=O)[C@H](Cc1c[nH]cn1)NC(=O)[C@H](C)NC(=O)[C@H](CC(C)C)NC(=O)[C@H](CCCNC(=N)N)NC(=O)[C@H](CCC(N)=O)NC(=O)[C@@H](NC(=O)[C@H](C)NC(=O)[C@@H]1CSSC[C@H](NC(=O)[C@H](CCCNC(=N)N)NC(=O)CNC(=O)CC[C@H](NC(=O)CCCCCCCCCCCCCCCCCCC(=O)O)C(=O)O)C(=O)N[C@@H](CC(N)=O)C(=O)N[C@@H]([C@@H](C)O)C(=O)N[C@@H](C)C(=O)N[C@@H]([C@@H](C)O)C(=O)N1)[C@@H](C)O)C(=O)N1CCC[C@H]1C(=O)N[C@@H](CO)C(=O)N[C@@H](CO)C(=O)N[C@H](C(=O)N[C@@H](CC(N)=O)C(=O)N[C@H](C(=O)NCC(=O)N[C@@H](Cc1c[nH]cn1)C(=O)N[C@@H](CC(N)=O)C(=O)N[C@H](C(=O)N[C@@H](Cc1ccc(O)cc1)C(N)=O)[C@@H](C)O)C(C)C)[C@@H](C)O, also called compound 100) | 1.73 nM |  |  |  |
